H3K9me3 by immunostaining and H3K9me2 by immunostaining data for one molecule are collected here from US20250051731A1, “COMPOSITIONS AND METHODS FOR ESTABLISHMENT OF BOVINE-INDUCED PLURIPOTENT STEM CELLS” (University of Connecticut, priority 2021, published 2025).

One experiment relates to H3K9me3. In words: Immunostaining of H3K9me3 in bMSCs. The experiment is classed as cell-based, bovine. The conditions noted are these: bMSCs overexpressing human KDM4A vs retroviral vector control. As to the method:
(§1) Immunostaining: For immunofluorescence, the cells were first fixed in 4% PFA for 15 min at room temperature. Following fixation, the cells were treated with 0.5% Triton X-100 in PBS for 15 min at room temperature for cell membrane permeabilization. After blocking with goat serum (Cell Signaling Technology, Danvers, MA, USA), the cells were incubated in goat serum containing primary antibodies for 2 h at 37° C., followed by secondary antibodies at room temperature for 1 h. Cells were counter-stained with DAPI and imaged under a Nikon fluorescence microscope. Primary antibodies including rabbit anti-OCT4 (Santa Cruz, CA, USA), rabbit anti-SOX2 (Merck Millipore), and mouse anti-NANOG (Merck Millipore) were used at 1:100 dilution while mouse anti-AFP (1:50; Cloud-clone Corp., TX, USA), rabbit anti-TUJ1 (1:500) and mouse anti-SMA (1:400) (Thermo Fisher Scientific) were diluted variously according to their manufacturer's instructions. Alexa Fluor 488 or 594 conjugated goat anti-rabbit or goat anti-mouse secondary antibody (Cell Signaling Technology) were used in 1:1000 dilution. For cell surface marker staining, the cells in different reprogramming conditions were stained with NL557-conjugated TRA-1-60 (1:100), SSEA-3 (1:50; R&D Systems, Minneapolis, MN, USA) and Alexa Fluor 594 conjugated SSEA-4 (1:100; BioLegend, San Diego, CA, USA) according to the manufacturer's protocol.

A further experiment deals with H3K9me2. In words: Immunostaining of H3K9me2 in bMSCs. The experiment is classed as cell-based, bovine. The note with it: bMSCs overexpressing human KDM4A vs vector control. As to the method:
as §1

B1: KDM4A: human lysine-specific demethylase 4A overexpressed in bMSCs from pMXs retroviral vector (protein, UniProt O75164 2-1064, looked up)
Lysine-specific demethylase 4A: ASESETLNPSARIMTFYPTMEEFRNFSRYIAYIESQGAHRAGLAKVVPPKEWKPRASYDDIDDLVIPAPIQQLVTGQSGLFTQYNIQKKAMTVREFRKIANSDKYCTPRYSEFEELERKYWKNLTFNPPIYGADVNGTLYEKHVDEWNIGRLRTILDLVEKESGITIEGVNTPYLYFGMWKTSFAWHTEDMDLYSINYLHFGEPKSWYSVPPEHGKRLERLAKGFFPGSAQSCEAFLRHKMTLISPLMLKKYGIPFDKVTQEAGEFMITFPYGYHAGFNHGFNCAESTNFATRRWIEYGKQAVLCSCRKDMVKISMDVFVRKFQPERYKLWKAGKDNTVIDHTLPTPEAAEFLKESELPPRAGNEEECPEEDMEGVEDGEEGDLKTSLAKHRIGTKRHRVCLEIPQEVSQSELFPKEDLSSEQYEMTECPAALAPVRPTHSSVRQVEDGLTFPDYSDSTEVKFEELKNVKLEEEDEEEEQAAAALDLSVNPASVGGRLVFSGSKKKSSSSLGSGSSRDSISSDSETSEPLSCRAQGQTGVLTVHSYAKGDGRVTVGEPCTRKKGSAARSFSERELAEVADEYMFSLEENKKSKGRRQPLSKLPRHHPLVLQECVSDDETSEQLTPEEEAEETEAWAKPLSQLWQNRPPNFEAEKEFNETMAQQAPHCAVCMIFQTYHQVEFGGFNQNCGNASDLAPQKQRTKPLIPEMCFTSTGCSTDINLSTPYLEEDGTSILVSCKKCSVRVHASCYGVPPAKASEDWMCSRCSANALEEDCCLCSLRGGALQRANDDRWVHVSCAVAILEARFVNIAERSPVDVSKIPLPRFKLKCIFCKKRRKRTAGCCVQCSHGRCPTAFHVSCAQAAGVMMQPDDWPFVVFITCFRHKIPNLERAKGALQSITAGQKVISKHKNGRFYQCEVVRLTTETFYEVNFDDGSFSDNLYPEDIVSQDCLQFGPPAEGEVVQVRWTDGQVYGAKFVASHPIQMYQVEFEDGSQLVVKRDDVYTLDEELPKRVKSRLSVASDMRFNEIFTEKEVKQEKKRQRVINSRYREDYIEPALYRAIME
As for B1, in the experiment with H3K9me3, the H3K9me3 by immunostaining entry is on record as “reduced”. The H3K9me2 by immunostaining entry in the experiment with H3K9me2 was “not”.
